Measurements published in US20250361282A1.

Tests used:
rat NPR-A (rat) = rat NPR-A (rat) (UniProt P18910); assay: cell-based or functional assay
rat NPR-B (rat) = rat NPR-B (rat) (UniProt P16067); assay: cell-based or functional assay
Chain of rat NPR-B (rat) (P16067 17-1047): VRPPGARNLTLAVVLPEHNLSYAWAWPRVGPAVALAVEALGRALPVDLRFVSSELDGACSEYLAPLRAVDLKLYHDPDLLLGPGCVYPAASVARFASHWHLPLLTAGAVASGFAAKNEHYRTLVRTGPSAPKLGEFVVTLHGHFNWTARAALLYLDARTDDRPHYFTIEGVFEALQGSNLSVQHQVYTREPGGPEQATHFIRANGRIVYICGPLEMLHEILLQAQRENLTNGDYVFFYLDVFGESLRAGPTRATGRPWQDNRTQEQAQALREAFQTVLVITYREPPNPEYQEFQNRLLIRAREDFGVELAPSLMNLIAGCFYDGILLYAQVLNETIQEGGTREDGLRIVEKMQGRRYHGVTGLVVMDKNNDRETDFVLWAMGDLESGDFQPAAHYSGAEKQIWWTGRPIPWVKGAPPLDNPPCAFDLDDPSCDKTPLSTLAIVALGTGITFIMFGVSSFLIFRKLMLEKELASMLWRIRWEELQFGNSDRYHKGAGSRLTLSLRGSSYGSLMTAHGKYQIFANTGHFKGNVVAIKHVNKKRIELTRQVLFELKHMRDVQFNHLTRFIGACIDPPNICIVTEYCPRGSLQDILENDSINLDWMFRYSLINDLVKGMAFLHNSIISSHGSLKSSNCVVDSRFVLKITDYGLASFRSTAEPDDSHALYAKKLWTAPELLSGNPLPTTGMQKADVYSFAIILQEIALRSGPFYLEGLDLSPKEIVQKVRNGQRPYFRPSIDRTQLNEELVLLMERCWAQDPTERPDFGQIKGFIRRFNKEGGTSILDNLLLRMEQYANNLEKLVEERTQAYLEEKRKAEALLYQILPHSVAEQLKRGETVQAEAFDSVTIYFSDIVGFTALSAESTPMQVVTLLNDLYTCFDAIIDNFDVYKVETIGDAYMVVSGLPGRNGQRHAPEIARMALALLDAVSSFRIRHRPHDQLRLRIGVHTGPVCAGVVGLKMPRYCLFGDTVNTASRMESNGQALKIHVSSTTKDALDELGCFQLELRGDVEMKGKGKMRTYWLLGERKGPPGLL

Chain of rat NPR-A (rat) (P18910 29-1057): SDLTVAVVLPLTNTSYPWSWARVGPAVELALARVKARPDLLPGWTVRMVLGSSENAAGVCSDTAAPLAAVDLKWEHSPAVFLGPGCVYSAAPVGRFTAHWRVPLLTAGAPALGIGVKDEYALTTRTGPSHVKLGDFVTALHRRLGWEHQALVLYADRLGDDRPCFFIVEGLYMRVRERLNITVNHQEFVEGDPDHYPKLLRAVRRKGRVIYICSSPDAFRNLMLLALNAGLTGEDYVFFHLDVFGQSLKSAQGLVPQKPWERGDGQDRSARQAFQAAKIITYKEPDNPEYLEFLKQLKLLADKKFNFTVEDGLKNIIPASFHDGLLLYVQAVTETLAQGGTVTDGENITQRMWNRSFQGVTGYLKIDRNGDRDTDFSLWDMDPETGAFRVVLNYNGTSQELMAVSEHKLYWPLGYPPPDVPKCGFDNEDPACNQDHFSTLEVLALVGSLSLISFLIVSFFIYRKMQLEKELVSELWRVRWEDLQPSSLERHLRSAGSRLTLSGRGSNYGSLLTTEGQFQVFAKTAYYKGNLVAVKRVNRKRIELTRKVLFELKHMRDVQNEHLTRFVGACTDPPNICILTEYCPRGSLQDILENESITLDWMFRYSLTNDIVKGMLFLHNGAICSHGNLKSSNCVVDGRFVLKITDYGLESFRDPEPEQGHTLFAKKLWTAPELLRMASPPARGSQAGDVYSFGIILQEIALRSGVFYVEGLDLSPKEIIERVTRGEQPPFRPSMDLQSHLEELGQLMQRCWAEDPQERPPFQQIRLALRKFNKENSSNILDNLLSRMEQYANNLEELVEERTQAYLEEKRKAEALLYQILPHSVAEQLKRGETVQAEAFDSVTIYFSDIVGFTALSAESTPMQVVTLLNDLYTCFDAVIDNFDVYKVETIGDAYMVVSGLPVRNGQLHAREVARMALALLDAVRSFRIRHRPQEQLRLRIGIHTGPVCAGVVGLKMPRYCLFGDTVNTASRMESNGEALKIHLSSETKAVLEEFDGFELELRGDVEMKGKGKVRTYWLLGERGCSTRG

Substance | EC50, fluorescence signal of rat NPR-A / CNGA2 (cGMP biosensor) / GCaMP6 CHO reporter cells (rat NPR-A (rat)) [nM] | EC50, luminescence signal of rat NPR-B reporter cells (rat NPR-B (rat)) [nM]
ANP (Bachem, H-2100) (from UniProt P01161 123-150) (peptide) | 0.22 | –
BNP (Bachem, H-5968) (from UniProt P13205 90-121) (peptide) | 2.9 | –
CNP (Bachem, H-1296) (from UniProt P23582 105-126) (peptide) | – | 0.024
